The results in this text go back to patent US20130123349A1.

For orientation: Kd means the free concentration of one partner at which half of the binding sites on the other are occupied at equilibrium, for simple one-to-one binding. Low values mean higher affinity, high ones lower affinity. The term koff denotes the rate constant with which the complex falls apart. Low values mean a long-lived complex, high ones a short-lived complex. As usually defined, the kon is a measure of how fast the partners come together. Low readings indicate slower complex formation, high ones faster complex formation.

The target in experiment [1] is collagen-related peptide (GPO)10, GCO-(GPO)10-GCOG-NH2, cross-linked. The experiment is described as follows: SPR, Aegyptin over immobilized cross-linked (GPO)10 peptide, two-state model. For orientation: In SPR one partner is held on a chip, and binding of the other changes the refractive index at the surface.
Experiment [2] has the same target. The experiment is described as follows: SPR, Aegyptin over immobilized cross-linked (GPO)10 peptide, two-state model; Kd1.
For experiment [3] the target is unchanged. Put plainly: SPR, Aegyptin over immobilized cross-linked (GPO)10, two-state model (text value; Table 4 prints 5.101 µM).
The target is the same in experiment [4]. The experiment is described as follows: SPR, Aegyptin over immobilized cross-linked (GPO)10 peptide, two-state model; Ka1.
The target of experiment [5] is soluble collagen type III (pepsin-digested, non-fibrillar; BD Biosciences) (human) (UniProt P02461). Put plainly: SPR, saliva injected over immobilized collagen type III for 120 sec at 20 µl/min.
For experiment [6], the target named is soluble collagen type I (pepsin-digested, non-fibrillar, triple helical; BD Biosciences) (human) (UniProt P02452). The experiment is described as follows: SPR, saliva injected over immobilized collagen type I for 120 sec at 20 µl/min.
soluble collagen type I (pepsin-digested, non-fibrillar, triple helical; BD Biosciences) (human), sequence (P02452 179-1192 limits assumed, chain 1 of 2): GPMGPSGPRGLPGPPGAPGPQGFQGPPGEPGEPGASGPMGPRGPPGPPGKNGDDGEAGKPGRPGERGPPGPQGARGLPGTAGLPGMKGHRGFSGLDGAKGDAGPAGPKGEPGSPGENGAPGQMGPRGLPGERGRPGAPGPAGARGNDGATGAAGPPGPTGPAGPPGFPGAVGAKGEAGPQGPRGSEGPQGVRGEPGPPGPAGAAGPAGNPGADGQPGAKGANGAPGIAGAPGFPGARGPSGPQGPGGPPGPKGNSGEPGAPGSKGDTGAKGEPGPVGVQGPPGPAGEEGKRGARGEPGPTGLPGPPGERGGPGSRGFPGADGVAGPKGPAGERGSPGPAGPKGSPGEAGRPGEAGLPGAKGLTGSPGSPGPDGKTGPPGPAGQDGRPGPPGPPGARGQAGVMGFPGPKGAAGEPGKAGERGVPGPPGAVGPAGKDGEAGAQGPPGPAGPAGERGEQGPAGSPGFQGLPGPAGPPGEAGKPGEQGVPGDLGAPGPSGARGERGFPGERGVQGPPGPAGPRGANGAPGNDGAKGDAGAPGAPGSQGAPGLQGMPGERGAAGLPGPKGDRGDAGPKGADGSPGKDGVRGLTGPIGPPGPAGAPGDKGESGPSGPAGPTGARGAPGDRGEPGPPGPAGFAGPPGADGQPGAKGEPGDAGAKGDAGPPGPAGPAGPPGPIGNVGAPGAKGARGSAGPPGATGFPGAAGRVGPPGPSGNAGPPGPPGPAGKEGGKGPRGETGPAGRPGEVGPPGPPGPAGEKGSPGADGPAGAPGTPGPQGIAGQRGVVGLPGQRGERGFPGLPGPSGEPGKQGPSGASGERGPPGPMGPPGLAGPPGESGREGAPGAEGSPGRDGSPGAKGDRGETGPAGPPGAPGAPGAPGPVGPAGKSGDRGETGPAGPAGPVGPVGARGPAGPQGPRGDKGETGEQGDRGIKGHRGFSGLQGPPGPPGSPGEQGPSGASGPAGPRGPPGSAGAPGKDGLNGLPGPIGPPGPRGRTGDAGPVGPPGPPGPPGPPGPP
soluble collagen type I (pepsin-digested, non-fibrillar, triple helical; BD Biosciences) (human), sequence (P08123 91-1104 limits assumed, chain 2 of 2, further chain): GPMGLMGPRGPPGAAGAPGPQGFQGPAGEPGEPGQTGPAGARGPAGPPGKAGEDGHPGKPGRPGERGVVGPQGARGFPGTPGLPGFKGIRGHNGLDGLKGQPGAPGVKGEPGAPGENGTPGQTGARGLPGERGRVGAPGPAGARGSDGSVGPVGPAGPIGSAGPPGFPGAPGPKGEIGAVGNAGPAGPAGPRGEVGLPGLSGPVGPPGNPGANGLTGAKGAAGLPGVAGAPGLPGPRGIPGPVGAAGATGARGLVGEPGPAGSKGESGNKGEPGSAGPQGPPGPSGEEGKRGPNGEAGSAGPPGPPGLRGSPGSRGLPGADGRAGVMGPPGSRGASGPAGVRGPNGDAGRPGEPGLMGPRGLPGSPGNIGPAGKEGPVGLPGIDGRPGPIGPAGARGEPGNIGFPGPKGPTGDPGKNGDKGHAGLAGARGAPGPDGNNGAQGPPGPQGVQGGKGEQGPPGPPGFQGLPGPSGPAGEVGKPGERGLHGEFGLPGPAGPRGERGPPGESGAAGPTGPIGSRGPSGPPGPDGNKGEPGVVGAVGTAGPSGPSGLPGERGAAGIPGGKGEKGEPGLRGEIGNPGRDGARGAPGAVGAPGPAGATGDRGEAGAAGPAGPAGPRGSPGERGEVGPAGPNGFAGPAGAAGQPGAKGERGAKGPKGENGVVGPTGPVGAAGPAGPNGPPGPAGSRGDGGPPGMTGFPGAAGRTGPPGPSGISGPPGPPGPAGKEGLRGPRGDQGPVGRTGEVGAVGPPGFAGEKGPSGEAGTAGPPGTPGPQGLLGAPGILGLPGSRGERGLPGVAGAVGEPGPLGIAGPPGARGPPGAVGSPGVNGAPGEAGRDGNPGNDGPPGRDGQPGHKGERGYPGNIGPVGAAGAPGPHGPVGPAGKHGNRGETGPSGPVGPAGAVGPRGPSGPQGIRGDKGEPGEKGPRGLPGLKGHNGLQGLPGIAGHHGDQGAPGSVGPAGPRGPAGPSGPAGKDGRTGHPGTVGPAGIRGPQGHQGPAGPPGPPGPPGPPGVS

soluble collagen type III (pepsin-digested, non-fibrillar; BD Biosciences) (human), sequence (P02461 168-1196): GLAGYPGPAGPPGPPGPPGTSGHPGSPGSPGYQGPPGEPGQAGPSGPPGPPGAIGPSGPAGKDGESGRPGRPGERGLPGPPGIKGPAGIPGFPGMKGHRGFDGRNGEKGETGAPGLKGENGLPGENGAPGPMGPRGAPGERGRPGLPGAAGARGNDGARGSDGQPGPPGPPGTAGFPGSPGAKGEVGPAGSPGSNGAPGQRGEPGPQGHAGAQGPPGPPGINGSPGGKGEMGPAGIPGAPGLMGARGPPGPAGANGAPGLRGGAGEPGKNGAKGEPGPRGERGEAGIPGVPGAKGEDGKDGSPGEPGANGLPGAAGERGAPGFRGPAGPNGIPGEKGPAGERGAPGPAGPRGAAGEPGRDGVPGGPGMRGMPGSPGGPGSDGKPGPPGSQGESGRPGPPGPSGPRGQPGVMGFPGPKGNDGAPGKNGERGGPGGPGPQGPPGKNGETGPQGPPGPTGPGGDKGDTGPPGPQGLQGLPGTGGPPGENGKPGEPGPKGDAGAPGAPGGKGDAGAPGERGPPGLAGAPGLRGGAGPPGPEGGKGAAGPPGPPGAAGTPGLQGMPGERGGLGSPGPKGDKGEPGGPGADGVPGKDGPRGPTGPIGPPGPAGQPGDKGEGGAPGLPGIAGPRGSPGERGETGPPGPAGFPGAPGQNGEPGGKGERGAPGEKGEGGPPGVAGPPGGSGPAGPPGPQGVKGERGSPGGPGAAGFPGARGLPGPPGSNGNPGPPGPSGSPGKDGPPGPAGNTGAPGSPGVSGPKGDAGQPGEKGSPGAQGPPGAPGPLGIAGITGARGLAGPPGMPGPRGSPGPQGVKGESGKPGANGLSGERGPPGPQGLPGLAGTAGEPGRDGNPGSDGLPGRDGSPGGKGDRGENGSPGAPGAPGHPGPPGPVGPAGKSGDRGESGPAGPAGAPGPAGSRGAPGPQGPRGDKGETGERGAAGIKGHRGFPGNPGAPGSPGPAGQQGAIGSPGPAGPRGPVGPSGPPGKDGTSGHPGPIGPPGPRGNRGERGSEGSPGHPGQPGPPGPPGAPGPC

For the substance “recombinant Aegyptin (from UniProt O01949 20-273)”, in experiment [1], the Kd came out at 5.1 µM, the Kd2 (two-state model) stood at 0.0289 s⁻¹ and the second Ka of the two-state model stood at 0.00402 M⁻¹ s⁻¹. Moreover, the koff in experiment [2] came out at 1.19 s⁻¹. The Kd in experiment [3] was 5.01 µM. In addition, the kon in experiment [4] is 206000 M⁻¹ s⁻¹.
As to Ae. aegypti saliva (0.07 µg/ml), the Response (RU) in experiment [5] amounted to 348 RU; in experiment [6] it was 556 RU.
